Ends that are not written are not given here.
What was measured:
Assay in all cases: biotinylated peptide overlaid on formalin-fixed amyloid-containing tissue sections; list of amyloids that p31 'specifically binds significantly'
[1] = biological target: Aβ amyloid (Alzheimer's disease) (human, UniProt P05067 672-713)
Description: (§1) The peptides were overlaid onto formalin-fixed 6 μm-thick amyloid-containing tissue sections, incubated overnight and then the distribution visualized using standard immunohistochemical techniques.

[2] = biological target: ATTR amyloid (transthyretin amyloidosis) (human, UniProt P02766 21-147)
Description: as §1

AA amyloid (human) = biological target: T1, AA amyloid (human) (human, UniProt P0DJI8 19-94, limits assumed)
T1 construct: also called serum amyloid protein A amyloidosis
T1 sequence (looked up): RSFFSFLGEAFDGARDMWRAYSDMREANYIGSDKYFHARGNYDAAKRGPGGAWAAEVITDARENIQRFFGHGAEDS
Description: as §1

AA amyloid (canine) = biological target: T2, AA amyloid (canine) (canine, UniProt P19708 19-111)
T2 sequence (looked up): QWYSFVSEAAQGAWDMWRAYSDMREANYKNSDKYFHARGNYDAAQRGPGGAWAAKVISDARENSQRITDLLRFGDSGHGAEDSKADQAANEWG
Description: as §1

[3] = biological target: T3, ALECT2 amyloid (Lect2 amyloidosis) (human, UniProt O14960 19-151, limits assumed)
T3 construct: also called ALEC2
T3 sequence (looked up): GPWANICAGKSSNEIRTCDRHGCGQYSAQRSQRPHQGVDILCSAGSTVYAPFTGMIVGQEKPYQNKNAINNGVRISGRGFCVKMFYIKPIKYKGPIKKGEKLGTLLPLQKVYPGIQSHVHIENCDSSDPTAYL
Description: as §1

- binding result [1]: binds
- binding result [2]: binds
- binding result (AA amyloid (human)): binds
- binding result (AA amyloid (canine)): binds
- binding result [3]: binds
B1: peptide p31 (peptide)
peptide: CGGYSKAQKAQAKQAKQAQKAQKAQAKQAKQ
modifications: also: label differs by assay: biotinyl-maleimide on Cys1 (tissue overlays), 125I on Tyr or 99mTc (imaging)
notes: Synthetic peptide with an N-terminal CGGY leader
